Results on 1 substance are retold here after paper PMC3561947.

The assay concerns the target His-tagged human polι P680A (pJRM86) (human). Kind of assay: far-Western, overlay or dot blot.

“in vitro translated 35S-labeled ubiquitin (from pBP129) (from UniProt P0CG47 1-76) (natural protein)” gave a percent of wild type (% of wild type) of 40.
